Experimental findings from PMC7772352 are described below.

This experiment concerns the target Tva-HA-Fc.

In the case of “soluble gp85-flag G196A (natural protein)”, the percentage of GFP fluorescence signal in DF-1 cells transfected with RCASBPGDFX0602 G196A-EGFP (recombinant virus; wild type 89.65%) stood at 0.24%.
As to “soluble gp85-flag R198H (natural protein)”, the percentage of GFP fluorescence signal in DF-1 cells transfected with RCASBP GDFX0602 R198H-EGFP (recombinant virus; wild type 89.65%) is 0.49%.
